For orientation: Kd means the free concentration of one partner at which half of the binding sites on the other are occupied at equilibrium, for simple one-to-one binding. Low values mean tighter binding, high ones weaker binding.

T1: GST-FliJ (purified) (Salmonella enterica serovar Typhimurium, UniProt P0A1K1 1-147)
T1 sequence (looked up): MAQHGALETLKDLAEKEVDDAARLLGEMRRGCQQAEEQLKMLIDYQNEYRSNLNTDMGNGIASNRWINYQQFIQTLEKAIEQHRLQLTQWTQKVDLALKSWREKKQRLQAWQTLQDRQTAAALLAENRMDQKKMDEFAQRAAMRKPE

B1: GST-FliJ(Δ13–24) (natural protein, Salmonella enterica serovar Typhimurium, UniProt P0A1K1 1-147, looked up)
chain: MAQHGALETLKDLGEMRRGCQQAEEQLKMLIDYQNEYRSNLNTDMGNGIASNRWINYQQFIQTLEKAIEQHRLQLTQWTQKVDLALKSWREKKQRLQAWQTLQDRQTAAALLAENRMDQKKMDEFAQRAAMRKPE
B2: His-FlgN (natural protein, Salmonella enterica serovar Typhimurium, UniProt P0A1J7 1-140, looked up)
chain: MTRLSEILDQMTTVLNDLKTVMDAEQQQLSVGQINGSQLQRITEEKSSLLATLDYLEQQRRLEQNAQRSANDDIAERWQAITEKTQHLRDLNQHNGWLLEGQIERNQQALEVLKPHQEPTLYGADGQTSVSHRGGKKISI

The test “His-FlgN” concerns the target B2. The experiment in a line: SPR.
The target in the next test is T1, GST-FliJ (purified). As to the kind of experiment: SPR. (In SPR one partner is held on a chip, and binding of the other changes the refractive index at the surface.)

The molecule B1 registered a Kd in the test with His-FlgN of 7.74 ± 0.12 µM. In turn, B2 showed a Kd with GST-FliJ (purified) of 27.4 ± 13 µM.

Source of the values: publication doi:10.1101/2020.07.14.203299 (bioRxiv, 2020).
